Results on 5 molecules are retold here after patent US12655208 (PARAGON THERAPEUTICS, dated 2026).

Numbering of substitutions follows the chain as printed. A value given as a limit tells only on which side of the number the result lay.

Assay [1] has as its target T1, Recombinant Human IL-23 (human, UniProt Q9NPF7 20-189; P29460 23-328).
T1 sequence (looked up) 1: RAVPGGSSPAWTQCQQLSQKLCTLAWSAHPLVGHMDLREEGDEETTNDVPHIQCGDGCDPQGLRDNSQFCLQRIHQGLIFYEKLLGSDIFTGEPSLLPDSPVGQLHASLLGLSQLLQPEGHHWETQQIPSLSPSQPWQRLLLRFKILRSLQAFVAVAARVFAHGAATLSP
T1 sequence (looked up) 2: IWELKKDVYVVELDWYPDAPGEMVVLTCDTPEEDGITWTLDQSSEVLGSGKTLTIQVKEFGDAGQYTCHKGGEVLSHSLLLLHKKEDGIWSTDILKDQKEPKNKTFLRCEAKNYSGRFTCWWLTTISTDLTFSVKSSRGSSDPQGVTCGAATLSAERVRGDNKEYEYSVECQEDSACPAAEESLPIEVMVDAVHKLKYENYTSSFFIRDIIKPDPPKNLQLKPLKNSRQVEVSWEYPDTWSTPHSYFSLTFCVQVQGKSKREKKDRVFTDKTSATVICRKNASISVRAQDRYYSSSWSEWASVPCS
As to the kind of experiment: cell-based or functional assay.

Assay [2] concerns the target T1, Recombinant Human IL-23. As to the kind of experiment: cell-based or functional assay. The source holds these as a separate data set.
In assay [3] the target is T1, Recombinant Human IL-23. As to the kind of experiment: SPR (Biacore 8K), mAb captured on anti-human IgG, hIL-23 as analyte, 25 °C. As to the method:
Binding affinities (K_D) of antibodies to human IL-23 (generated as described in Examples 1-3) were determined through surface plasmon resonance (SPR) using a BIA-CORE™ 8K SPR system (Cytiva). […] Anti-IL23 mAb constructs (diluted to 2 µg/mL) were captured onto flow cell 2 (active) for 60 sec at a flow rate of 10 µL/min. Recombinant Human IL-23 was prepared at concentrations of 0, 1.23, 3.7, 11.11, 33.33, 100 nM and injected over flow cell 1 (reference) and flow cell 2 (active) for 180 sec at a flow rate of 50 µL/min. Samples were injected in a multi-cycle manner over freshly captured mAb, by regenerating the capture surfaces with injection of 10 mM glycine, pH 1.5 for 30 sec at a flow rate of 30 µL/min. A 1:1 kinetic binding model was utilized to determine the apparent association (ka) and dissociation rate constants (kd). Their ratio provides the apparent equilibrium dissociation constant or affinity constant (K_D=kd/ka).
On the technique in general: SPR reads the build-up and loss of mass on a sensor chip optically.

For assay [4], the target named is T1, Recombinant Human IL-23. As to the kind of experiment: cell-based or functional assay. The source holds these as a separate data set.

B1: Reference Antibody 1 (antibody, human IgG1, kappa, L234A L235A, V domains shown)
VH: QVQLVQSGAEVKKPGSSVKVSCKASGYTFTDQTIHWMRQAPGQGLEWIGYIYPRDDSPKYNENFKGKVTITADKSTSTAYMELSSLRSEDTAVYYCAIPDRSGYAWFIYWGQGTLVTVSS
VL: DIQMTQSPSSLSASVGDRVTITCKASRDVAIAVAWYQQKPGKVPKLLIYWASTRHTGVPSRFSGSGSRTDFTLTISSLQPEDVADYFCHQYSSYPFTFGSGTKLEIKR
notes: Human IgG1 with LALA; also called parental anti-human IL-23p19 antibody
One may read the koff as the first-order rate constant of dissociation. The kon is the second-order rate constant of association. Take B1: in the assay with Recombinant Human IL-23 [1], the “Relative IC50, inhibition of IL-23-induced phosphorylation of STAT3 in DB cells (pSTAT3 ELISA)” value (“Relative IC50, inhibition … (pSTAT3 ELISA)” for short) is 1 relative to Reference Antibody 1. Further, in the assay with Recombinant Human IL-23 [2], the “Relative IC50, inhibition of IL-23-induced STAT3 activation (luciferase reporter, HEK 293F IL-23R+/IL-12Rβ1+)” value is 1 relative to Reference Antibody 1. In the assay with Recombinant Human IL-23 [3], the koff is under 1e-06 s⁻¹ and the kon amounted to 167000 M⁻¹ s⁻¹.

B2: Clone MAb004 (antibody, human IgG1, V domains shown)
VH: B1 VH with D31A, I34M, D56G, P58T, Y109V
VL: EIVMTQSPATLSVSPGERATLSCKASRDVAIAVAWYQQKPGQAPRLLLFWASTRHTGIPARFSGSGSRTEFTLTISSLQSEDFAVYYCHQYSSYPFTFGGGTKVEIK
notes: Tested in full antibody format; The printed constant part is human IgG1 with LALA/YTE
B2: the “Relative IC50, inhibition of IL-23-induced STAT3 activation (luciferase reporter, HEK 293F IL-23R+/IL-12Rβ1+)” value with Recombinant Human IL-23 [2] is 0.409 relative to Reference Antibody 1. In addition, in the assay with Recombinant Human IL-23 [3], the koff is under 1e-06 s⁻¹ and the kon turned out to be 247000 M⁻¹ s⁻¹.

B3: Clone MAb001 (antibody, human IgG1, kappa, L234A L235A, V domains shown)
VH: B1 VH with D31T, I34L, D56G, P58T, I108Q, Y109H
VL: B1 VL
For B3, in the assay with Recombinant Human IL-23 [1], the “Relative IC50, inhibition … (pSTAT3 ELISA)” value was 0.573 relative to Reference Antibody 1. Besides, the “Relative IC50, inhibition of IL-23-induced STAT3 activation (luciferase reporter, HEK 293F IL-23R+/IL-12Rβ1+)” value with Recombinant Human IL-23 [2] is 0.612 relative to Reference Antibody 1. Further, in the assay with Recombinant Human IL-23 [3], the koff was under 1e-06 s⁻¹ and the kon stood at 151000 M⁻¹ s⁻¹.

B4: Clone MAb003 (antibody, V domains shown)
VH: B1 VH with D31S, I34M, S57Y, E62D, Y109H
VL: B1 VL
Regarding B4, the “Relative IC50, inhibition … (pSTAT3 ELISA)” value in the assay with Recombinant Human IL-23 [1] was 0.799 relative to Reference Antibody 1. Also, the “Relative IC50, inhibition of IL-23-induced STAT3 activation (luciferase reporter, HEK 293F IL-23R+/IL-12Rβ1+)” value with Recombinant Human IL-23 [2] was 0.868 relative to Reference Antibody 1. Besides, in the assay with Recombinant Human IL-23 [3], the koff is under 1e-06 s⁻¹ and the kon was found to be 164000 M⁻¹ s⁻¹.

B5: Clone MAb002 (antibody, human IgG1, kappa, L234A L235A, V domains shown)
VH: EVQLLESGGGLVQPGGSLRLSCAASGYTFTDQTIHWVRQAPGKGLEWIGYIYPRDDSPKYNENFKGRATLSADNSKNTAYLQMNSLRAEDTAVYYCAIPDRSGYAWFIYWGQGTTVTVSS
VL: EIVMTQSPATLSVSPGERATLSCKASRDVAIAVAWYQQKPGQAPRLLLFWASTRHTGIPARFSGSGSRTEFTLTISSLQSEDFAVYYCHQYSSYPFTFGGGTKVEIKR
notes: Described as an extended half-life humanized IgG1 monoclonal antibody
Regarding B5, in the assay with Recombinant Human IL-23 [4], the “IC50, inhibition of STAT3 activity and phosphorylation” value is under 1 nM. In the assay with Recombinant Human IL-23 [2], the “Relative IC50, inhibition of IL-23-induced STAT3 activation (luciferase reporter, HEK 293F IL-23R+/IL-12Rβ1+)” value is 0.64 relative to Reference Antibody 1. Moreover, in the assay with Recombinant Human IL-23 [3], the koff is under 1e-06 s⁻¹ and the kon was determined as 266000 M⁻¹ s⁻¹.
